Test results: a protein production outcome set (Wang et al. 2014)

Experiment: label from the status in PepcDB records

| Sequence | protein production |
| --- | --- |
| MLLRSPSYAGKAAQAQEGDAYGVYQLATLLIGMDAEDETSCLLAADALYRLGRLDDAHKSLLVALSQRPQAAPVLVRLALLQLRRGFCYDANQLVKKVAQSGDTACLQHMLDIFHHEDLQLLQDHCHTRALSILRARPGGSDSEAHTREAIAYLSLAIFAAGSGGSESLLVRARCYGLLGQKKTAMFDFNAILREEPGNVKALCGRALVHLALDQLQEAVDDMVSALKLDPGTVTPEILSLKTEVQLPLTQGLYTRCRVLLNQCLHTGVPLREEDTQGLLATGKALIRINATQPSWRLLLTDILTGLGKYQEAGTHLQEALHLTPSSEAAQARQGLLQLKKGDVSAAAHGLQCLAERDTQDLGFLLRLLDSPERQSLVQTAAKEASNILDLGNPGQALSYCSLAILAGGNNPYHLRLRVACLTQLREYDRALRDLDRVLQHPAEDSDLPRRSEDFCTRGRLLLSLGDKDGAAGAFTQALALAPAQAQNSLLEQPGQAMTASVFLIHGQRCLEEQHFEEAWTAVQNGLLVDPSHSGLKKLKLRTRKVATSGCRLH | failed |
| MQAKLRLWLTFCVVTPVLLLFGNAGLAEQTPAPKVLKPVTSKAVGVTPRGQVLSLSCSSCHGTDGKSVGIMPSFYGKTPQYIETALLEFKSGKRYSTVMGRHAKGYSDDEIHLIAQYCGIKGQKTK | failed |
| MNNRKKNIQYLVYSKVIYRIGDVMFDFANNTFLAGLNPASLSLVAVYQSLESVIGVLFNLFGGVIADSFKRKKIIITTNILCGTACLVLSFLTKEQWLVYAIVLTNVILAFMSAFSSPSYKAFTKEIVKKDSISQLNSLLETTSTVIKVTVPMVAIFLYKLLGIHGVLLLDGLSFLIAALLISFILPVNDEVVIKEKVTIREIFNDLKIGFKYVYSHKSIFIITVLSALVNFFLAAYNLLLPYSNQMFGEISTGLYGTFLTAEAIGGFIGAILSGFVNKELSSMRLILFLSLSGLMLMLAPPFYIMFHNAIILALSPALFSLFLSIFNIQFFSLVQKDVDNDFLGRVFGIIFTITILFMPIGTGFFSVALNPNNSFNLFIIGSCITTLSLVFRILFKKYNIR | failed |
| MAEGSSLALPRVSASLHEPARAFSFRLDEGKSPWVEVVITIGSFPRCPEVTMMWPPPPTFSVFLLLLLSQVPSSRPQSPGTKKLRLVGPANRPEEGRLEVLHQGQWGTVCDDDFALQEATVACRQLGFESALTWAHSAKFGQGEGPIWLDNVRCLGTEDTLDQCGSNGWGVSDCRHSEDVGVVCHPRRQQGYHSEKVSNALGPQGRRLEEVRLKPILASAKRHSPVTEGAVEVRYEGHWRQVCDQGWTMNNSRVVCGMLGFPSQAPVNSHYYRKVWNLKMKDPKSRLNGLTKKNSFWIHRVDCLGTEPHLAKCQVQVAPGRGKLRPACPGGMHAVVNCVAGPHFQRQKPKPKRKESGAEELKVRLRSGAQVGEGRVEVLMNRQWGTVCDHRWNLISASVVCRQLGFGSAREALFGAQLGQGLGPIHLSEVRCRGYEQTIGDCLALEGSQNGCQHANDAAVRCNIPDMGFQNKVRLAGGRNSEEGVVEVQVEVNGVPRWGTVCSDHWGLTEAMVTCRQLGLGFANFAIKDTWYWQGTPEAKEVVMSGVRCSGTEMALQQCQRHGPVHCSHGSGRFSAGVACMNSAPDLVMNAQLVQETAYLEDRPLSMLYCAHEENCLSKSADHMDWPYGHRRLLRFSSQIYNLGRADFRPKAGRHSWIWHQCHRHYHSIEVFTHYDLLTLNGSKVAEGHKASFCLEDTNCPSGVQRRYACANFGEQGVAVGCWDTYRHDIDCQWVDITDVSPGDYIFQVVVNPTNDVAESDFSNNMIRCRCKYDGQRVWLHNCHTGDPYRPNAELSLEQEQRLRNNLI | failed |
| AIAAAPIESLLNEICESEDPIEELKSLRTAVLATPVSGLRPAVSGARLEIIFSLLNTNDKEQIEVCVEILSRVLQALEPVQLAQNYRTALQSGLNHPDDSVKVLTLTQIGRVAGHTEGVTQMLNNVEILHDVIQCISVERIAVAKEAIAALSKLSNTKAGLDALFRSDLLNKLKDVMLTSDIIRYRVYELIVEVSTVSPVSLGYCANSGLISQMLEELTGDDVLVRATAIEMVTNLAQSQHGRQYLAQQGIMDKISSVQKIFGAHNYLKLKTYLNEGSYYVTAVSAVTTEGAD | failed |
| MSIVVPAYEEAQSLPELADGVRAACEEAGLSFRLWIIDDGSRDETWEVVRGLCEDDPRVAGVRFRRNYGKSAALAVGFDRVQGRYVATMDADLQDDPDEIPALIDKLEEGGHDLVSGWKKDRKDPLRKTLPSRFFNWVTRLFSGLPLHDFNCGLKVYRRPVVKSIDVYGELHRYIPLLAKWEGYDRVAEKEVQHHPRKYGTTKFGVERFIQGFLDLITVVFLTRYAVRPMHFFGSMGTVAFALGFLVSLWLSFDKLVLGHPIGDRPLLLLGVLLILFGSQMFTTGLLGEMIIRPRMEDPSTYEVAEATGLADEAADVLEG | failed |
| MFACMGVLVKLAAAFFSNTELVFYRSLVGVITTFLVMRAYGMPLVTEHWKSHCWRGLSGLGGVLLFFYCILQLPLATAISLNNTWPLFLAFLAMILLKEEFSWLLAGALVVGFIGVIFLLRPTLAEGQWYLALIGIGSGLFAGIAHFHVRQLSELGESDWLTVFYFTLVCTVATGLWLTFTAFSAVSLQSLTLALGIGVTATLAQLAISRAHRGSNILIVGVLSYSSVLFAGLMDLFFWDARLPVSAWVGMGLIILGGLLSIRGIPVRNSSIVTLDD | failed |
| MSDTRRCVVIPAVKKNAVIPDQLVKRLAGVTLIQRAIDTAKALAPGDDIVVVTDSQEIALICERNGVRHVCNPGLHLATLDIVRELRGVLEDLARSYGHIVIYRASCPLLTADDIEDAYATFLREGADCLVTVKSVRHRVWEKRNGGLDALLSQDETEPSIYVESKALVMLDASALTRGEVRKVVPYFLNDRAIEINSYQDWWICEKLLCRKHIVFVVAGYPAIGMGHIFRALMLAHEVADHRITFLCTRESELAASNIAARDYRTRVQQGDDLAADVLSLRPDLVINDILNTDADYVGRLREAGVRVVNFEDEGPGAHLADLVVNALYEEKVDDPRFLHGHRFFCLRDEFVNGVRNDYRDPVRCVLVTFGGTDHSDFSRGTLDAIEPLCRERGITIRLVAGPGYAHKDAMQEHVERLGSPLVEFTYATNVMSRMMEGADLAICSAGRTVYELAHMRVPAIVMAHHEREGRHTFARGRNGFAYLGVMEHFDGAKLTRVFTQLLDAGNRRRLFDRQARFDFIRNKADVVRRITALLDDTPAPENA | failed |
| MQRLNLGCGQYPKAGFLNVDVDPLAKADVFHDLSSFPYPFEDARFDLVEMDHVLEHLPSPRDAMREIWRILKPGGTLRLRVPHFSRGFSHYDHKCGFDVTFPLYFDPTFPGGYTGIPFEHVQTRLVWFAQPWLKRQVLGNFAFNVGKMLGMVFDALGNIAPLATSRLFCFWVGGYEEITFELRRPTNTLEHHHHHH | not failed |
| MPGSLRKMPVWLPIVILLVAMASIQGGASLAKSLFPLVGAPGVTALRLALGTLILIAFFKPWRLRFAKEQRLPLLFYGVSLGGMNYLFYLSIQTVPLGIAVALEFTGPLAVALFSSRRPVDFVWVVLAVLGLWFLLPLGQDVSHVDLTGCALALGAGACWAIYILSGQRAGAEHGPATVAIGSLIAALIFVPIGALQAGEALWHWSVIPLGLAVAILSTALPYSLEMIALTRLPTRTFGTLMSMEPALAAVSGMIFLGETLTPIQLLALGAIIAASMGSTLTVRKESKIKELDIN | failed |
| MNFGTQIKMIRKENQLTQEQFGNQLNISRQTVSTWENNRYLPDIEMLVEIAKTFNLSLDDLILGNSVVKDKLVNDTKFVKRIRLSILSMIFILIAIVSALLFTSLPSHVSQDGVLQEPWFLVILAFFSLLTGLIIGMVNLVLIFINYYKYARRRK | failed |
| MIQAQTAAPPHAKVTAILLFTTLMWGGSFLFNKIGMREVPPVHFFFFRFALAALLMGGVCLPRLARLNRHIAVRGAVVGLALAAVNLTFVLGVSGTTISRAGYLNNLFVLFIPLLTFALWRERVDRVTFGGIALAVVGLWALASGGAEGFNQGDLLSTVCALFIAIHIIAVSRVLRDEDVYLVTFVQFVTVAAVGLVLCLVLPWPEFTIGRAGAWSLAYCALFPTVICFTLQNAYQRFTTPTRAGLIYTLDPVWSMLFGVFILGERLTPRELAGCVLILMAVAGPLLARLYLEQRHRRLYRLDGAEGT | failed |
